According to PMC10655040:

Target: CXCR4 (human (endogenous in HeLa)) (UniProt P61073)
Experiment: flow cytometry on cells; competition on HeLa cells: 100 nM sfGFP(Y151pAzF)-SDF-1β coincubated with 1 μM commercial SDF-1β (R&D) or 1 μM CXCR4 blocking agent AMD3100; 10 000 cells per sample

Sequence of UniProt P61073 (P61073 whole entry): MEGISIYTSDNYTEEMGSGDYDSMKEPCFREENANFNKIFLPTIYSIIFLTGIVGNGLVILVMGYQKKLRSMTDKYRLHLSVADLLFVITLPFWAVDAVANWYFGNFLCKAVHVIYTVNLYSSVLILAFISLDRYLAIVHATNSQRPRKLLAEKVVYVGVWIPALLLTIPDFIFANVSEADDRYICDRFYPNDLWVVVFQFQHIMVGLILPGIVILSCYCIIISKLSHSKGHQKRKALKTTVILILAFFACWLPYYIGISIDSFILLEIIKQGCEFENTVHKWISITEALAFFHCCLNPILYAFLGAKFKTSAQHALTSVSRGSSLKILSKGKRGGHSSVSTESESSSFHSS

percent decrease of binding to HeLa cells with 1 μM AMD3100 (CXCR4 blocking agent): 30%
Substance: sfGFP(Y151pAzF)-SDF-1β (ligand)
